Results published in article PMC3756332 (Scientific Reports, 2013).

Target: T1, rabbit cytochrome P450 2B4 (rabbit, UniProt P00178 1-491)
T1 sequence (looked up): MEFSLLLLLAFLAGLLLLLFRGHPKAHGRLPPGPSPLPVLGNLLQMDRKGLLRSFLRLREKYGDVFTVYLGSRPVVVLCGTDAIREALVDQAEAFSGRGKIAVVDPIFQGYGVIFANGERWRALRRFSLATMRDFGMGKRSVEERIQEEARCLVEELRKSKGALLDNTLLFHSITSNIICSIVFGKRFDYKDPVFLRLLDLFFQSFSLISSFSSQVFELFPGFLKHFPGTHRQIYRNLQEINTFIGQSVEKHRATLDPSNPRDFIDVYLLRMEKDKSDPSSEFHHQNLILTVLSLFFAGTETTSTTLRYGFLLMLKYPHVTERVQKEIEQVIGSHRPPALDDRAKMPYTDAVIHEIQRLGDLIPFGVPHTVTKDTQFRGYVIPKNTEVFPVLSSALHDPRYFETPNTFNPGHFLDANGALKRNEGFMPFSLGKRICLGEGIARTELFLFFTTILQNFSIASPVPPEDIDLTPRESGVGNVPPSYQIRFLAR
Test: type I spectral change

binding result: binds
B1: rabbit cytochrome b5 (natural protein, UniProt P00169 1-134, looked up)
chain: MAAQSDKDVKYYTLEEIKKHNHSKSTWLILHHKVYDLTKFLEEHPGGEEVLREQAGGDATENFEDVGHSTDARELSKTFIIGELHPDDRSKLSKPMETLITTVDSNSSWWTNWVIPAISALIVALMYRLYMADD
modifications: uniformly 15N-labeled (in the NMR experiments)
